Test results as given in publication PMC9482650, “Quantitative fragmentomics allow affinity mapping of interactomes” (Nature Communications, 2022).

T1: APBA3_1, O96018
T1 sequence (O96018 389-490, limits assumed, looked up): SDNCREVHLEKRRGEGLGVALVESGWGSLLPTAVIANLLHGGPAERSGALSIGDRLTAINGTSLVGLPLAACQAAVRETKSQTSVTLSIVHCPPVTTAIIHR

T2: DVL3, Q92997
T2 sequence (Q92997 244-331, limits assumed, looked up): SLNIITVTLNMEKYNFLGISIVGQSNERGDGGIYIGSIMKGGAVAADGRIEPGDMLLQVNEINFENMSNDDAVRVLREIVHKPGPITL

T3: FRMPD1, Q5SYB0
T3 sequence (Q5SYB0 52-145, limits assumed, looked up): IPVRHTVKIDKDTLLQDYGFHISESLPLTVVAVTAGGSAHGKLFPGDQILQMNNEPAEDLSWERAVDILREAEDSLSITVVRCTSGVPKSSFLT

T4: HTRA4, P83105
T4 sequence (P83105 378-476, limits assumed, looked up): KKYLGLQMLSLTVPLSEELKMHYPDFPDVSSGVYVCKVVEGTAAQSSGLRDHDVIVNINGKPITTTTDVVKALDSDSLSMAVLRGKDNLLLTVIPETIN

T5: PDZD7_3, Q9H5P4
T5 sequence (Q9H5P4 857-944, limits assumed, looked up): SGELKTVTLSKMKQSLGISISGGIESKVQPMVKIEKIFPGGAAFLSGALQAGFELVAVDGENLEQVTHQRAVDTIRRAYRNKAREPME

T6: PTPN13_1, Q12923
T6 sequence (Q12923 1088-1188, limits assumed, looked up): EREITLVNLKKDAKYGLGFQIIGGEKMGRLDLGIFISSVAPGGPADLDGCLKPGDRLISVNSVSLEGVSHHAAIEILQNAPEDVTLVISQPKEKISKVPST

T7: RAPGEF6, Q8TEU7
T7 sequence (Q8TEU7 525-625, limits assumed, looked up): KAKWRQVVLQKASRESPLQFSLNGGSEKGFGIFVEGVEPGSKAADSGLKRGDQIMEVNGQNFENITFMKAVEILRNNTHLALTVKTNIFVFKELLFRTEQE

T8: RHPN1, Q8TCX5
T8 sequence (Q8TCX5 508-602, limits assumed, looked up): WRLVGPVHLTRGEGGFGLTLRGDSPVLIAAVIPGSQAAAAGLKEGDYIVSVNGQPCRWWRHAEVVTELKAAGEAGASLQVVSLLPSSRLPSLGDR

T9: SIPA1L2, Q9P2F8
T9 sequence (Q9P2F8 945-1036, limits assumed, looked up): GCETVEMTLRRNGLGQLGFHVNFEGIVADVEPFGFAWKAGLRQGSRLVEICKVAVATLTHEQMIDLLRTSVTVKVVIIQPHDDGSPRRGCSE

T10: SNTG2, Q9NY99
T10 sequence (Q9NY99 68-166, limits assumed, looked up): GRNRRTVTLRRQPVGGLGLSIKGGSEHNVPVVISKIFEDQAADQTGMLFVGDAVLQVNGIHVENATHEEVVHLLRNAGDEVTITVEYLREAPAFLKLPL

T11: TIAM2, Q8IVF5
T11 sequence (Q8IVF5 885-986, limits assumed, looked up): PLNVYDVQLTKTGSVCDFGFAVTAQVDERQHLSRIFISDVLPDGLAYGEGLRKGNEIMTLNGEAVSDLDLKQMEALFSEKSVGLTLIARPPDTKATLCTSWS

B1: GRIA2, P42262 (peptide)
chain: NVYGIESVKI

Target: T1, APBA3_1, O96018
Test: holdup assay
Set-up: key: below the threshold = too weak to quantify, mostly under pKd 3.1 to 4
Conditions: plain residues with an end cap or a label only (N-terminal biotin on a linker: ado-ado)

pKd | Binder
below the threshold | B1

Target: ARHGEF12, Q9NZN5-2
Test: holdup assay
Set-up: key: below the threshold = too weak to quantify, mostly under pKd 3.1 to 4
Conditions: plain residues with an end cap or a label only (N-terminal biotin on a linker: ado-ado)

ARHGEF12, Q9NZN5-2, sequence (Q9NZN5 other isoform, or with tags, fused parts or gaps): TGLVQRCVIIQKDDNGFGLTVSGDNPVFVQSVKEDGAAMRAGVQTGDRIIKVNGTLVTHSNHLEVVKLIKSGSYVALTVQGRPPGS

pKd | Binder
3.59 | B1

Target: DLG2_3, Q15700
Test: holdup assay
Set-up: key: below the threshold = too weak to quantify, mostly under pKd 3.1 to 4
Conditions: plain residues with an end cap or a label only (N-terminal biotin on a linker: ado-ado)

pKd | Binder
3.81 | B1

Target: T2, DVL3, Q92997
Test: holdup assay
Set-up: key: below the threshold = too weak to quantify, mostly under pKd 3.1 to 4
Conditions: plain residues with an end cap or a label only (N-terminal biotin on a linker: ado-ado)

pKd | Binder
below the threshold | B1

Target: T3, FRMPD1, Q5SYB0
Test: holdup assay
Set-up: key: below the threshold = too weak to quantify, mostly under pKd 3.1 to 4
Conditions: plain residues with an end cap or a label only (N-terminal biotin on a linker: ado-ado)

pKd | Binder
below the threshold | B1

Target: FRMPD2_1, Q68DX3
Test: holdup assay
Set-up: key: below the threshold = too weak to quantify, mostly under pKd 3.1 to 4
Conditions: plain residues with an end cap or a label only (N-terminal biotin on a linker: ado-ado)

FRMPD2_1, Q68DX3, sequence (Q68DX3 770-861): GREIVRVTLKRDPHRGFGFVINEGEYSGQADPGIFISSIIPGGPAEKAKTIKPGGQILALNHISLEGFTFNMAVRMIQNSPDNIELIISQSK

pKd | Binder
3.56 | B1

Target: FRMPD2_2, Q68DX3
Test: holdup assay
Set-up: key: below the threshold = too weak to quantify, mostly under pKd 3.1 to 4
Conditions: plain residues with an end cap or a label only (N-terminal biotin on a linker: ado-ado)

FRMPD2_2, Q68DX3, sequence (Q68DX3 944-1038): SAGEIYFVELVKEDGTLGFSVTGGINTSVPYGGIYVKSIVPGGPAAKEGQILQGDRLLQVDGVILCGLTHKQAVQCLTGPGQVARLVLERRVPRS

pKd | Binder
below the threshold | B1

Target: FRMPD2_3, Q68DX3
Test: holdup assay
Set-up: key: below the threshold = too weak to quantify, mostly under pKd 3.1 to 4
Conditions: plain residues with an end cap or a label only (N-terminal biotin on a linker: ado-ado)

FRMPD2_3, Q68DX3, sequence (Q68DX3 1073-1166): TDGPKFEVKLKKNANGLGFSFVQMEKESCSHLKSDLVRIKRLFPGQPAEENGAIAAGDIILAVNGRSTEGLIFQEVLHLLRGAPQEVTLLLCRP

pKd | Binder
3.49 | B1

Target: FRMPD4, Q14CM0
Test: holdup assay
Set-up: key: below the threshold = too weak to quantify, mostly under pKd 3.1 to 4
Conditions: plain residues with an end cap or a label only (N-terminal biotin on a linker: ado-ado)

FRMPD4, Q14CM0, sequence (Q14CM0 67-160): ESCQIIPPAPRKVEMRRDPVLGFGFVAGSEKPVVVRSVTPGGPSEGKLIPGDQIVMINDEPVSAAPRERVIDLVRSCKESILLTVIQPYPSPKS

pKd | Binder
below the threshold | B1

Target: GRASP, Q7Z6J2
Test: holdup assay
Set-up: key: below the threshold = too weak to quantify, mostly under pKd 3.1 to 4
Conditions: plain residues with an end cap or a label only (N-terminal biotin on a linker: ado-ado)

GRASP, Q7Z6J2, sequence (Q7Z6J2 96-193): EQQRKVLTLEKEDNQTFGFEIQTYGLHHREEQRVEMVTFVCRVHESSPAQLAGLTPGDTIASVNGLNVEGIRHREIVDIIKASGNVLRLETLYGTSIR

pKd | Binder
below the threshold | B1

Target: GRIP2_4, Q9C0E4
Test: holdup assay
Set-up: key: below the threshold = too weak to quantify, mostly under pKd 3.1 to 4
Conditions: plain residues with an end cap or a label only (N-terminal biotin on a linker: ado-ado)

GRIP2_4, Q9C0E4, sequence (Q9C0E4 446-548): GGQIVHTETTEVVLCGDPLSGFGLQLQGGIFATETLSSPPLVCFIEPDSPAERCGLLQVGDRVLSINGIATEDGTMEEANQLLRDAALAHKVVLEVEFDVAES

pKd | Binder
below the threshold | B1

Target: T4, HTRA4, P83105
Test: holdup assay
Set-up: key: below the threshold = too weak to quantify, mostly under pKd 3.1 to 4
Conditions: plain residues with an end cap or a label only (N-terminal biotin on a linker: ado-ado)

pKd | Binder
3.74 | B1

Target: Inadl_6, Q8NI35
Test: holdup assay
Set-up: key: below the threshold = too weak to quantify, mostly under pKd 3.1 to 4
Conditions: plain residues with an end cap or a label only (N-terminal biotin on a linker: ado-ado)

Inadl_6, Q8NI35, sequence (Q8NI35 1058-1167): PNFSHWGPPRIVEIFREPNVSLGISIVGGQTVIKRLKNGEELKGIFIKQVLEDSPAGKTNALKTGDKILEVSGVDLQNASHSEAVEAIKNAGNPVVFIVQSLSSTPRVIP

pKd | Binder
below the threshold | B1

Target: Inadl_8, Q8NI35
Test: holdup assay
Set-up: key: below the threshold = too weak to quantify, mostly under pKd 3.1 to 4
Conditions: plain residues with an end cap or a label only (N-terminal biotin on a linker: ado-ado)

Inadl_8, Q8NI35, sequence (Q8NI35 1425-1530): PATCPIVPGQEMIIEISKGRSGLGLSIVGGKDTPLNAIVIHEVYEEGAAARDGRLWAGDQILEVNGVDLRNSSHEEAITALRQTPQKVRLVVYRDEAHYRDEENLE

pKd | Binder
below the threshold | B1

Target: LNX1_1, Q8TBB1
Test: holdup assay
Set-up: key: below the threshold = too weak to quantify, mostly under pKd 3.1 to 4
Conditions: plain residues with an end cap or a label only (N-terminal biotin on a linker: ado-ado)

LNX1_1, Q8TBB1, sequence (Q8TBB1 261-371): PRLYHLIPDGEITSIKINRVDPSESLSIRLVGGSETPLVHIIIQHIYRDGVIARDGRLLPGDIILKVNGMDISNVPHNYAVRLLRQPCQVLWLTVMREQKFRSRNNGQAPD

pKd | Binder
4.07 | B1

Target: LNX1_2, Q8TBB1
Test: holdup assay
Set-up: key: below the threshold = too weak to quantify, mostly under pKd 3.1 to 4
Conditions: plain residues with an end cap or a label only (N-terminal biotin on a linker: ado-ado)

LNX1_2, Q8TBB1, sequence (Q8TBB1 371-470): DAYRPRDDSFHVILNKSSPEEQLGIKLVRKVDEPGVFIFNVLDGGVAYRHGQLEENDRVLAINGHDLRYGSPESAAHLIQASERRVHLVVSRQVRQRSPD

pKd | Binder
below the threshold | B1

Target: MAGI2_3, Q86UL8
Test: holdup assay
Set-up: key: below the threshold = too weak to quantify, mostly under pKd 3.1 to 4
Conditions: plain residues with an end cap or a label only (N-terminal biotin on a linker: ado-ado)

MAGI2_3, Q86UL8, sequence (Q86UL8 600-682): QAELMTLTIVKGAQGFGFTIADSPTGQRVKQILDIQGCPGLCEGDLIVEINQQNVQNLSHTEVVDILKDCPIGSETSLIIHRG

pKd | Binder
below the threshold | B1

Target: MAGI2_6, Q86UL8
Test: holdup assay
Set-up: key: below the threshold = too weak to quantify, mostly under pKd 3.1 to 4
Conditions: plain residues with an end cap or a label only (N-terminal biotin on a linker: ado-ado)

MAGI2_6, Q86UL8, sequence (Q86UL8 1141-1229): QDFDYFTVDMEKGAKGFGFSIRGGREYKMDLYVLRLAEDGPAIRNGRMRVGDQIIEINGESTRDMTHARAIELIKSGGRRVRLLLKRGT

pKd | Binder
below the threshold | B1

Target: NHERF4_4, Q86UT5
Test: holdup assay
Set-up: key: below the threshold = too weak to quantify, mostly under pKd 3.1 to 4
Conditions: plain residues with an end cap or a label only (N-terminal biotin on a linker: ado-ado)

NHERF4_4, Q86UT5, sequence (Q86UT5 464-550): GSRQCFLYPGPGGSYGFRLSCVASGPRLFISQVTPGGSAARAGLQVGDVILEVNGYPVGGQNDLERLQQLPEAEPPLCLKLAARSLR

pKd | Binder
below the threshold | B1

Target: T5, PDZD7_3, Q9H5P4
Test: holdup assay
Set-up: key: below the threshold = too weak to quantify, mostly under pKd 3.1 to 4
Conditions: plain residues with an end cap or a label only (N-terminal biotin on a linker: ado-ado)

pKd | Binder
below the threshold | B1

Target: PDZRN4_1, Q6ZMN7
Test: holdup assay
Set-up: key: below the threshold = too weak to quantify, mostly under pKd 3.1 to 4
Conditions: plain residues with an end cap or a label only (N-terminal biotin on a linker: ado-ado)

PDZRN4_1, Q6ZMN7, sequence (Q6ZMN7 213-318): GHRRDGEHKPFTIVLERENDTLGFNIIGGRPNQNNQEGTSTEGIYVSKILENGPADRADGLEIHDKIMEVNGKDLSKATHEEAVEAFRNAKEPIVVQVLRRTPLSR

pKd | Binder
below the threshold | B1

Target: T6, PTPN13_1, Q12923
Test: holdup assay
Set-up: key: below the threshold = too weak to quantify, mostly under pKd 3.1 to 4
Conditions: plain residues with an end cap or a label only (N-terminal biotin on a linker: ado-ado)

pKd | Binder
below the threshold | B1

Target: T7, RAPGEF6, Q8TEU7
Test: holdup assay
Set-up: key: below the threshold = too weak to quantify, mostly under pKd 3.1 to 4
Conditions: plain residues with an end cap or a label only (N-terminal biotin on a linker: ado-ado)

pKd | Binder
below the threshold | B1

Target: T8, RHPN1, Q8TCX5
Test: holdup assay
Set-up: key: below the threshold = too weak to quantify, mostly under pKd 3.1 to 4
Conditions: plain residues with an end cap or a label only (N-terminal biotin on a linker: ado-ado)

pKd | Binder
3.81 | B1

Target: T9, SIPA1L2, Q9P2F8
Test: holdup assay
Set-up: key: below the threshold = too weak to quantify, mostly under pKd 3.1 to 4
Conditions: plain residues with an end cap or a label only (N-terminal biotin on a linker: ado-ado)

pKd | Binder
below the threshold | B1

Target: T10, SNTG2, Q9NY99
Test: holdup assay
Set-up: key: below the threshold = too weak to quantify, mostly under pKd 3.1 to 4
Conditions: plain residues with an end cap or a label only (N-terminal biotin on a linker: ado-ado)

pKd | Binder
below the threshold | B1

Target: T11, TIAM2, Q8IVF5
Test: holdup assay
Set-up: key: below the threshold = too weak to quantify, mostly under pKd 3.1 to 4
Conditions: plain residues with an end cap or a label only (N-terminal biotin on a linker: ado-ado)

pKd | Binder
4.21 | B1
